The nature of this series: soluble on expression in E. coli; label from the status in PepcDB or PDB records.
As to “LNLSGLSLSCEYQPFVCPHTKHIHGYEALARFYLGQGQAIAPNLVFEQLHENSNALAAVEFQAKTFQLKHAPARQSLFVNVDPHAANGVHTQKLLDLLSSHPQLTVEIIENTCISDAELANQLFHQFKTANLNVALDDIGAPHSMLSVDLMMNVDYLKFDRHWLNLVAEPHGIALLSALIEFGKRTGKQCILEGIETEAQLQLARELNVDLVQGFLFKP”, the “soluble on expression in E. coli” value is “not soluble”.
“MGSDKIHHHHHHKQEPISKSGVPVINLSEDVSTVPSLLLSEAAEKLEIVPLEMTDESVLSDITEMQVTDHNIWIDHGREFYIYRFSRTGKFLNKIGSIGQGPGEYTTYSTFLVDEDKKEVYIIANTNGVLAYDFEGNFKRKIIDIQMILQLFSSPYDQYILNNQKFFATQNFGLYRPIDKDSLWSFVSLGDDFQKKKYFKNPAHVGREEQIIANRANMDRMVNYWREYLTSMDTYNAQLTLKYPDTDTIYCYDDATNQLSPQYAIFTDEEKGDYEATHLWFKDRKAFDYFSIFSYYPTKDFIYLVGSKGEEVYTYCYNKKDGSVRLQKRQSTITERDVPWFSFPLRQMKRDFVLDNDLGGGDFTVDSRSSGKYWIDILEPGGDENWIDIDQIKSSTVIDESKKKELIRVLESATEDSNPILMIATLK”: the “soluble on expression in E. coli” value is reported as “not soluble”.
Regarding “ADQPSPTWGIDRIDQRNLPLDNNYHTDYDGSGVTAFVIDTGVLNTHNEFGGRASSGYDFIDNDYDATDCNGHGTHVAGTIGGSTYGVAKNVNVVGVRVLNCSGSGSNSGVIAGINWVKNNASGPAVANMSLGGGASQATDDAVNAAVAAGITFVVAAGNDNSNACNYSPARAADAITVGSTTSNDSRSSFSNYGTCLDIYAPGSSITSSWYTSNSATNTISGTSMASPHVAGVAALYLDENPNLSPAQVTNLLKTRATADKVTDAKTGSPNKLLFSLA”, the “soluble on expression in E. coli” value is on record as “soluble”.
As to “MSLASRRSKLIAVVVPQINNNMFVDTIQSLSDELARRGYHILLCVAGYTEQTEAELVATLLSRRPDGVVLTGIHHTIELKKVILNAAIPVVEIWDLTPTPLDMLVGFSHEKVGQATGEYLLSKGYRRPGLLWTADRRAAQRKQGLCSVLQRHAIHAVPQVDVPLPASLSLGRSGLSQLFDEGTFDVIVCSSDTLAQGAMMEAESRGLRIPHDLAVIGFGDLDFAASNRPSITTVSVDRRAIGQRAATLLADRIEQKPCAEAIVDIGFHLIGRESAEGHHHHHH”, the “soluble on expression in E. coli” value is listed as “not soluble”.
For “MSLTNKWIGALGLLLSGQLMASELVIESWRADDKALWEQKIIPAFEAANPGIKVKFNPVPNVNYTPTLWENLKAGKAGDLITCRPFDDSLALFKAGHLAEITEMAGMENFPSFAQAPWQTDSGAQTFCVPMASVIHGFFYNKKIFNELGLSVPQTREQFFTVLDKVKADGRYIPLSMSGSESWVASELGYQNIGPNYWKGEDGRLALINGQEHLDDSQYVKVFEELARWRAYLGEDGELRDYGTSNELFTSGKAALYVAGSWEIAPFTDKVDFGVMRPPVAKQGDGCFFTDHTDIGMGMNPASKNPQAAMAFLQWLTTPEFAELYTNSLPGFFSLSNHFFDVTNPAAREMMEWRDQCDSTIRVATQILSRGQPKLGDELAEVSQAVLVGKMTPTAAAERLEQGLKRWYAPHQTRKAKEQECQCVEPISPTTRLNTLPVVDIAPVVASDPVPPTEATILSEEGGSHHHHHH”, the “soluble on expression in E. coli” value was “soluble”.
“MPYEADDYLSRHFQTSGTDLARKVDELAALAAPGDSPNLALYREMLFTVTRMAQADRNRWDAKIMLQTLREMEHAFSVLEQFKRRRKVTVFGSARTPVEHPVYALARKLGEELARYDLMVITGAGGGIMAAAHEGAGLENSLGFNITLPFEQHANHTVDGSGNLLSFHFFFLRKLFFVKEADALVLCPGGFGTLDEALEVLTLVQTGKSPLVPIVLLDQPGGRYWEHALEFMQEQLLENHYILPADMRLMRLVHSAEDAVKEIAQFYRNFHSSRWLKGTFVIRLNHALNEAALAHLHEHFASLCLSGGFQQQAYSEQEQDEPEFRNLTRLAFVFNGRDQGRLRELLDYINLPENWD”: the “soluble on expression in E. coli” value is reported as “not soluble”.
Turning to “MRILVTNDDGIYSPGLWALAEAASQFGEVFVAAPDTEQSAAGHAITIAHPVRAYPHPSPLHAPHFPAYRVRGTPADCVALGLHLFGPVDLVLSGVNLGSNLGHEIWHSGTVAAAKQGYLFGLSAAAFSVPLNGEVPDFAGLRPWLLRTLETLLRLERPFLVNVNLPLRPKGFLWTRQSVRAYEGVVIPGEDPMGRPFYWFAPRPLKEAEEGTDRWAVAQGFVSATPLRLDLTDETRLQPTLAHD”, the “soluble on expression in E. coli” value is recorded as “soluble”.
In the case of “MDAENEDFDGAEDSDHTDNDKKEDELSLDNVLRLGGTKADYVMLAGISDTTELINGGKKVIIDDLEEGELEDFIKQLGIRAYADQQIIQDEEDPASSEPTQKEGKKAKGSKVKEDAAPNVKNKVTPSTQATKTSVQSTNLANATGKKAKQKPANLFEFIPRQFLLIKPGGKWFDIEYTSEGTSVAQNESLTCQYKALAQKLYENETALYKSKKSLQKGANSAWMKTRKLRTFSQHPFEELEEKSSGNKDTRDRRLILWYFEHQLKLQIADFVVTLDELAHDMVEATKMRALTTAYELLCNQPEQEKLLLVQIVNKLEDA”, the “soluble on expression in E. coli” value was “soluble”.
On to “EFVGRGIGNSVREDLSFNLLLSSDMDETQAQELQRQIAATPFVKDVSYISADQALEEMKKELGEDDPAKMLGYNPLQAEMCVHLKAQYTHPDSLKTIDSAIRTWNGVDNLEYRADMFDIVHRNTRR”, for which the “soluble on expression in E. coli” value was “not soluble”.
Under “MSLKFVGLVGSNAEQSYNRKLLEYIRKQFKLKFELELLEIDEVPMFNQDQSWKDSFQLRLLYNKIIRADGVIIATPEHNHTITAALKSVLEWLSCEVHPFENKPVMIVGASYYDQGTSRAQVHLRKILDAPGVNAYTLPGNEFLLGKAKEAFDDNGNIINQGTVDFLETCLDNFMSYVGVVSKLQKPKPIEPEDLDCNHPIATTITEVDPDDPEWVEKVAEITGAVSGDAYVKLDHGILTVDQINMFLKAMPFELTYADDNNQFLYYNNAHQDPDTMYAKRIPEQSGNRLSTVHNSLPAGRMKNVEWVIGTLRNGNQEYVRTLIPSPNPAVLNTHNYQAMYYDDGSFAGINEIVFNFKPWLDWYLQTTGQRLVGGEGHHHHHH” stands “soluble”; under “GSGLSAQDISQPLQNSFIHTGHGDSDPRHCWGFPDRIDELYLGN”, “soluble”; under “MVVLHVKRGDESQFLLQAPGSTELEELTAQVARVYNGRLKVHRLCSEMEELAEHGVFLHPNMQGLTDEQIEELKLKDEWGEKCVPSGGSVFTKDEIGRRNGQAPNEKMKQVLKKTVEEAKAIVSKKQVEAGVFVTMEMVKDALDQLRGAVMIVYPMGLPPYDPIRMEFENKEDLSGTQAALEVIQESEAQLWWAAKELRRTKKLSDYVGKNEKTKIIVKIQQRGQGAPAREPVISSEEHKQLMLFYHRRQEELKKLEENDDDSCLNSPWADNTALKRHFHGVKDIKWRPR”, “soluble”.
Consider “MVESKATLEEYVQTQLLQNWIYNDGAYLSLAFDAMCEGNFDRLCELDWQLSATKVARESREGSFKLGVRLLKIFIRYETHTLLTAYQQAIAEKRVQGYFPIVFAMVAQAMGLSKADTLYAFYYNAAVGVITNGVKLIPLSQMDGQDILFDLRGSLVQAVELSLDPDEEWLGAATLANDIRAMQHEVLYTRLYMSLEHHHHHH”, for which the “soluble on expression in E. coli” value is “not soluble”.
In the case of “MDMLKENVIQNNEARTESSVEPSHPDMMETVPEEQQKPISHIDDLLSETANLMAVKEQLLKEIAENEHIHSMQMRALQNLPQEAILPLQYHADPRRRHRMQKPESYKTVICQAWLESKTCAFAENCRFAHGEEELRPSLIEARQNNKYRTKLCDKYTTTGLCPYGKRCLFIHPDNGPNAYIRADKLFEVSQRHALADLRDQMEHHIMNGGRSTAGPQQFDMFARPCTPDEPAANMPLGPTPVSIRGPRYELPSKKPLETEEAGNRPPSSWPLDPSTFFALDSLNMATRPISPFESMLIGAAGNMQYSMLGKQSTPGGVSGYSSSGSTPSQDSDSSPLTAASAAADAACQANSESAQSILLKSINNPMIGNETTLPIPGLDQLAMDIAKHLELW”, the “soluble on expression in E. coli” value is “not soluble”.
Under “MTIFQFPQDFMWGTATAAYQIEGAYQEDGRGLSIWDTFAHTPGKVFNGDNGNVACDSYHRYEEDIRLMKELGIRTYRFSVSWPRIFPNGDGEVNQEGLDYYHRVVDLLNDNGIEPFCTLYHWDLPQALQDAGGWGNRRTIQAFVQFAETMFREFHGKIQHWLTFNEPWCIAFLSNMLGVHAPGLTNLQTAIDVGHHLLVAHGLSVRRFRELGTSGQIGIAPNVSWAVPYSTSEEDKAACARTISLHSDWFLQPIYQGSYPQFLVDWFAEQGATVPIQDGDMDIIGEPIDMIGINYYSMSVNRFNPEAGFLQSEEINMGLPVTDIGWPVESRGLYEVLHYLQKYGNIDIYITENGACINDEVVNGKVQDDRRISYMQQHLVQVHRTIHDGLHVKGYMAWSLLDNFEWAEGYNMRFGMIHVDFRTQVRTPKESYYWYRNVVSNNWLETRR” stands “soluble”; under “MGSDKIHHHHHHMEHTYRLVISCPDRVGIVAKVSNFLSTYNGWITEASHHSDTQAGWFFMRHEIKAESIPFGLDQFRAAFEPIAREFNMNWHIADSARPKRVILMCSKESHCLADLLHRWHSKELNCEIVAVISNHDDLRRMVEWHEIPYHHVPVSKENKAEAFAHIDELFQQYETDVVVLARYMQILPAELCGKYSGKVINIHHSFLPSFAGARPYHQAYSRGVKLIGATCHYVTQDLDEGPIIEQDVIRISHSDSIEDMVRLGKDVEKNVLARGLRSHIEDRVITYENKTVVFD”, “not soluble”.
Turning to “MGSDKIHHHHHHMAEQQKTAAATAEAEAIDLGEFSGLLEKDFKVKKDDSEKLQQLVRNLALAAQSRSETTTISSNAIKSIKSLIAGIDKMLTTQVNEILHAPEVREMEGTWRGLWYLINNTETDTKLKIRVMNISKEQLADTLEDYEGQMWDQSPIFKKVYTDEYSMLGGEPIGCIIGAYEFSNHPRDVGLLRNISGVCASAHTPFIAAASPRLFRMDSWQELPNPQDLQMIVNNPAYASWQSLRESEDARYIGLTMPRVLARLPYGSETVPVKGFTFEEEVGGDHNKYVWMNAAFPMGVNINRSHKLYGWGTQIRGVENGGTVLNLPVHAFPTDDGSIAMKCPTEVAIDDRREAELAKLGLMPILHRKNTDLAAFIGAHSLQDDETRAGRLVDPDAQSNERLSANLPYLFPVSRFAHYLKAIARDKIGSFKERTDMEIWLTEWINRYVLANPAFADDKARAKRPLAAAEVQVDSVEGRPGYYNARFYLRPHYQLEGINASLRLVSELPSVKG”, the “soluble on expression in E. coli” value is given as “not soluble”.
In the case of “MPAQPNPEQRDWLEALNAGDATMGESRLFERDGTWYLHVTATRDVEERSDVSAEERTPIGVDIGEASLATVCHRDGHGSPTAPELWADEGKTVRRLRKTYFTATRRLQTRGSERIVESFGDDIWDQIDDVFHRVTREVVEYAESVENPVLVLEDLTYIRESMDYGEYMNRRLHGWGFAKLHAQIRYKAVEKGIPVETVNPCNTSKECHACGEVGYRPRQATFKCTNDACWMGESQADVNGAINIADRYLSGESHSREHTDGDDSAGDGGRLTAPQDTLADATTQETLGTYAS”, the “soluble on expression in E. coli” value is “soluble”.
As for “MSELFSNDNIFLNVNVNSQNEAIEKAGKALVDSGAVTDAYIQAMKDREQVVSTFMGNGLAIPHGTDEAKTNVIHSGLTLLQIPEGVDWDGEVVKVVVGIAGKDGEHLDLLSKIAITFSEEENVDRIVQAKSAEEIKQVFEEADA”, the “soluble on expression in E. coli” value was “not soluble”.
Consider “SDSASQDINLNSPNKGVLSDFMTDVPVDPGVVHRTPVVEGLTEGEEEELRAELAKVEEEIVTLRQVLAAKERHCGELKRRLGLSTLGELKQNLSRSWHDVQVSTAYVKTSEKLGEWNEKVTQSDLYKKTQETLSQAGQKTSAALSTMGSAISRKLGDMSSYSIRHSISMPVMRNSATFKSFEDRVGTIKSKVVGGRENGSDNLPPSPGSGDQTLPDHAPF”, for which the “soluble on expression in E. coli” value is given as “soluble”.

Source of the values: the DeepSol protein solubility set.
